# Laboratory results published in patent publication US20180155451A1 (published 2018).
# Changes are numbered by the printed parent chain.
# B1: GpH7-A5/GpH7-B3 variant S239_18N/GpL16-k0 (antibody, human IgG1, kappa)
# heavy 1: not shown
# heavy 2: not shown
# light: DIVMTQSPLSLPVTPGEPASISCQASESLVHSNRNTYLHWYLQKPGQSPQLLIYKVSNRFSGVPDRFSGSGSGTDFTLKISRVEAEDVGVYYCSQNTHVPPTFGQGTKVEIERTVAAPSVFIFPPSDEQLKSGTASVVCLLNNFYPREAKVQWKVDNALQSGNSQESVTEQDSKDSTYSLSSTLTLSKADYEKHKVYACEVTHQGLSSPVTKSFNRGEC
# notes: Heterodimerized anti-glypican-3 IgG1; alteration in the GpH7-B3 chain only; also called He Ab
# B2: GpH7-A5/GpH7-B3 variant S239_01G/GpL16-k0 (antibody, human IgG1, kappa)
# heavy 1: not shown
# heavy 2: not shown
# light: B1 light
# notes: as for B1
# B3: GpH7-A5/GpH7-B3 variant P238_01G/GpL16-k0 (antibody, human IgG1, kappa)
# heavy 1: not shown
# heavy 2: not shown
# light: B1 light
# notes: as for B1
# B4: GpH7-A5/GpH7-B3 variant G237_14T/GpL16-k0 (antibody, human IgG1, kappa)
# heavy 1: not shown
# heavy 2: not shown
# light: B1 light
# notes: as for B1
# B5: GpH7-A5/GpH7-B3 variant P238_07I/GpL16-k0 (antibody, human IgG1, kappa)
# heavy 1: not shown
# heavy 2: not shown
# light: B1 light
# notes: as for B1
# B6: GpH7-A5/GpH7-B3 variant L235_09D/GpL16-k0 (antibody, human IgG1, kappa)
# heavy 1: not shown
# heavy 2: not shown
# light: B1 light
# notes: as for B1
# B7: GpH7-A5/GpH7-B3 variant P238_18N/GpL16-k0 (antibody, human IgG1, kappa)
# heavy 1: not shown
# heavy 2: not shown
# light: B1 light
# notes: as for B1
# B8: GpH7-A5/GpH7-B3 variant P329_01G/GpL16-k0 (antibody, human IgG1, kappa)
# heavy 1: not shown
# heavy 2: not shown
# light: B1 light
# notes: He Ab; IgG1; mutation in one H chain only
# B9: GpH7-A5/GpH7-B3 variant A330_03V/GpL16-k0 (antibody, human IgG1, kappa)
# heavy 1: not shown
# heavy 2: not shown
# light: B1 light
# notes: as for B8
# B10: GpH7-A5/GpH7-B3 variant A330_08L/GpL16-k0 (antibody, human IgG1, kappa)
# heavy 1: not shown
# heavy 2: not shown
# light: B1 light
# notes: as for B8
# B11: GpH7-A5/GpH7-B3 variant A330_07I/GpL16-k0 (antibody, human IgG1, kappa)
# heavy 1: not shown
# heavy 2: not shown
# light: B1 light
# notes: as for B8
# B12: GpH7-A5/GpH7-B3 variant A330_13S/GpL16-k0 (antibody, human IgG1, kappa)
# heavy 1: not shown
# heavy 2: not shown
# light: B1 light
# notes: as for B8
# B13: GpH7-A5/GpH7-B3 variant A330_09D/GpL16-k0 (antibody, human IgG1, kappa)
# heavy 1: not shown
# heavy 2: not shown
# light: B1 light
# notes: as for B8
# B14: GpH7-A5/GpH7-B3 variant A330_14T/GpL16-k0 (antibody, human IgG1, kappa)
# heavy 1: not shown
# heavy 2: not shown
# light: B1 light
# notes: as for B8
# B15: GpH7-A5/GpH7-B3 variant A330_10E/GpL16-k0 (antibody, human IgG1, kappa)
# heavy 1: not shown
# heavy 2: not shown
# light: B1 light
# notes: as for B8
# B16: GpH7-A5/GpH7-B3 variant A330_12R/GpL16-k0 (antibody, human IgG1, kappa)
# heavy 1: not shown
# heavy 2: not shown
# light: B1 light
# notes: as for B8
# Molecular target: T1, FcγRIIa H (human, UniProt P12318 34-217)
# T1 construct: extracellular domain; Soluble extracellular domain with C-terminal His tag, expressed in FreeStyle293 cells; also called FcgRIIa H; 2aH; not shown: C-terminal His tag
# T1 sequence (looked up): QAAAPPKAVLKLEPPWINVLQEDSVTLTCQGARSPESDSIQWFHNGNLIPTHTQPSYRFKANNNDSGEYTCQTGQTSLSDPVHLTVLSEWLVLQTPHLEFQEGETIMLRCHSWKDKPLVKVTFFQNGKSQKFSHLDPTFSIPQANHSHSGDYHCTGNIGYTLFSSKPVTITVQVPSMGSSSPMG
# Assay: SPR (Biacore), antibody captured, FcγR as analyte; relative to HeCon Ab
# Description: (§1) The heterodimerized antibodies He Abs in which one of the H chains was introduced with an alteration were assayed for their binding activities to each activating FcγR and inhibitory FcγR according to the method described in Example 4. […] The activating FcγRs in FIGS. 26, 27, 28, and 29 are FcγRIa, FcγRIIa (R), FcγRIIa (H), and FcγRIIIa, respectively.
# (§2) Analysis of interaction between objective antibody and the FcγR was carried out using Biacore T100 (GE Healthcare). HBS-EP+ (GE Healthcare) was used as the running buffer, and the measurement temperature was set to 25° C. Chips produced by immobilizing the antigen peptide by the amine coupling method to a Series S Sencor Chip CM5 (GE Healthcare), or alternatively, chips produced by allowing preliminarily biotinylated antigen peptides to interact with and immobilize onto a Series S Sensor Chip SA (certified) (GE Healthcare) were used. Antibodies of interest were captured onto an antigen peptide-immobilized chip, and allowed to interact to each FcγR diluted with running buffer. To regenerate and repeatedly use the chip, the antibodies captured on the chip were washed off by reacting 10 mM glycine-HCl, pH 1.5.
row,He/Con_2aH,Binder
1,94.2 % of GpH7-A5/GpH7-B3/GpL16-k0 (=100),B1
2,97 % of GpH7-A5/GpH7-B3/GpL16-k0 (=100),B2
3,37.3 % of GpH7-A5/GpH7-B3/GpL16-k0 (=100),B3
4,31.8 % of GpH7-A5/GpH7-B3/GpL16-k0 (=100),B4
5,57.6 % of GpH7-A5/GpH7-B3/GpL16-k0 (=100),B5
6,75.8 % of GpH7-A5/GpH7-B3/GpL16-k0 (=100),B6
7,53.5 % of GpH7-A5/GpH7-B3/GpL16-k0 (=100),B7

# Molecular target: T2, FcγRIIb (human, UniProt P31994 43-217)
# T2 construct: extracellular domain; Soluble extracellular domain with C-terminal His tag, expressed in FreeStyle293 cells; also called FcgRIIb; 2b; not shown: C-terminal His tag
# T2 sequence (looked up): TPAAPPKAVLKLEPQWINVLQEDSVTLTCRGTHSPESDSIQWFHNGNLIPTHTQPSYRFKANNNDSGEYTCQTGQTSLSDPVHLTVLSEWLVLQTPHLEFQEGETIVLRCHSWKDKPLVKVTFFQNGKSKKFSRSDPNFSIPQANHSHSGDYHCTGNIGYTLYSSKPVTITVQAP
# Assay: as above
# Description: as §1, §2
row,He/Con_2b,Binder
1,119 % of GpH7-A5/GpH7-B3/GpL16-k0 (=100),B1
2,144 % of GpH7-A5/GpH7-B3/GpL16-k0 (=100),B2
3,56 % of GpH7-A5/GpH7-B3/GpL16-k0 (=100),B3
4,54.8 % of GpH7-A5/GpH7-B3/GpL16-k0 (=100),B4
5,80 % of GpH7-A5/GpH7-B3/GpL16-k0 (=100),B5
6,106 % of GpH7-A5/GpH7-B3/GpL16-k0 (=100),B6
7,73.2 % of GpH7-A5/GpH7-B3/GpL16-k0 (=100),B7

# Molecular target: T3, FcγRIIa R (human, UniProt P12318 34-217)
# T3 construct: extracellular domain; also called FcgRIIa R; FcγRIIa type R
# T3 sequence (looked up): T1 sequence (looked up) with H134R
# Assay: He/Con_2aR divided by He/Con_2b (FcγRIIa R over FcγRIIb); SPR (Biacore)
row,IIaR/IIb (He_2aR/2b),Binder
1,1.32 ratio,B8
2,1.43 ratio,B9
3,1.26 ratio,B10
4,1.27 ratio,B11
5,1.47 ratio,B12
6,1.27 ratio,B13
7,1.23 ratio,B14
8,1.23 ratio,B15
9,1.22 ratio,B16

# Molecular target: T4, FcγRIIb (human, UniProt P31994 43-217)
# T4 construct: extracellular domain; also called FcgRIIb
# T4 sequence (looked up): T2 sequence (looked up)
# Assay: SPR (Biacore), captured antibody, FcγR analyte; binding relative to GpH7-A5/GpH7-B3/GpL16-k0 = 100
row,He/Con_2b (IIb binding),Binder
1,41.7 control=100,B8
2,52.4 control=100,B9
3,70.5 control=100,B10
4,67.1 control=100,B11
5,41.3 control=100,B12
6,55.6 control=100,B13
7,77.9 control=100,B14
8,70.1 control=100,B15
9,84.8 control=100,B16

# Molecular target: T3, FcγRIIa R
# Assay: as above
row,He/Con_2aR (IIaR binding),Binder
1,55 control=100,B8
2,74.9 control=100,B9
3,88.8 control=100,B10
4,85.6 control=100,B11
5,60.8 control=100,B12
6,70.9 control=100,B13
7,95.5 control=100,B14
8,86.6 control=100,B15
9,104 control=100,B16
